# In patent publication US20100260668A1 (published 2010):
# B1: DVD034 (bispecific antibody, human IgG1, kappa)
# heavy: not shown
# light: DIQMTQSPSSVSASVGDRVTITCRASQGISSWLAWYQQKPGKAPNLLIYEASSLQSGVPSRFGGSGSGTDFTLTISSLQPEDFATYYCQQANGFPWTFGQGTKVEIKRTVAAPDVVMTQSPLSLPVTPGEPASISCRSSQSLLHSNGFNYVDWYLQKPGQSPHLLIYFGSYRASGVPDRFSGSGSGTDFTLKISRVEAEDVGVYYCMQALQTPPWTFGQGTKVEIRRTVAAPSVFIFPPSDEQLKSGTASVVCLLNNFYPREAKVQWKVDNALQSGNSQESVTEQDSKDSTYSLSSTLTLSKADYEKHKVYACEVTHQGLSSPVTKSFNRGEC
# notes: DVD-Ig; outer AB012 (HGF), inner AB005 (RON); also called HGF and RON DVD-Ig
# B2: DVD043 (bispecific antibody, human IgG1, kappa)
# heavy: not shown
# light: DIQMTQSPSSLSASVGDRVTITCSASQDISNYLNWYQQKPGKAPKVLIYFTSSLHSGVPSRFSGSGSGTDFTLTISSLQPEDFATYYCQQYSTVPWTFGQGTKVEIKRTVAAPDIQMTQSPSSLSASVGDRVTITCRASQDVSTAVAWYQQKPGKAPKLLIYSASFLYSGVPSRFSGSGSGTDFTLTISSLQPEDFATTYYCQQSYTGTVTFGQGTKVEIKRTVAAPSVFIFPPSDEQLKSGTASVVCLLNNFYPREAKVQWKVDNALQSGNSQESVTEQDSKDSTYSLSSTLTLSKADYEKHKVYACEVTHQGLSSPVTKSFNRGEC
# notes: DVD-Ig; also called VEGF and DLL4 DVD-Ig
# B3: DVD047 (bispecific antibody, human IgG1, kappa)
# heavy: not shown
# light: DIQMTQSPSSLSASVGDRVTITCSASQDISNYLNWYQQKPGKAPKVLIYFTSSLHSGVPSRFSGSGSGTDFTLTISSLQPEDFATYYCQQYSTVPWTFGQGTKVEIKRTVAAPDVVMTQSPLSLPVTPGEPASISCRSSQSLLHSNGFNYVDWYLQKPGQSPHLLIYFGSYRASGVPDRFSGSGSGTDFTLKISRVEAEDVGVYYCMQALQTPPWTFGQGTKVEIRRTVAAPSVFIFPPSDEQLKSGTASVVCLLNNFYPREAKVQWKVDNALQSGNSQESVTEQDSKDSTYSLSSTLTLSKADYEKHKVYACEVTHQGLSSPVTKSFNRGEC
# notes: DVD-Ig; also called VEGF and RON DVD-Ig
# B4: DVD258 (bispecific antibody, human IgG1, kappa)
# heavy: not shown
# light: DIVLTQSPDSLAVSLGERVTMNCKSSQSLLNSGMRKSFLAWYQQKPGQSPKLLIYWASTRESGVPDRFTGSGSGTDFTLTISSVQAEDVAVYYCKQSYHLFTFGSGTKLEIKRTVAAPDIQMTQSPSSLSASVGDRVTITCRASQDVSTAVAWYQQKPGKAPKLLIYSASFLYSGVPSRFSGSGSGTDFTLTISSLQPEDFATTYYCQQSYTGTVTFGQGTKVEIKRTVAAPSVFIFPPSDEQLKSGTASVVCLLNNFYPREAKVQWKVDNALQSGNSQESVTEQDSKDSTYSLSSTLTLSKADYEKHKVYACEVTHQGLSSPVTKSFNRGEC
# notes: DVD-Ig; outer AB047 (PlGF), inner AB015 (DLL4); also called PlGF and DLL4 DVD-Ig
# B5: DVD485 (bispecific antibody, human IgG1, kappa)
# heavy: not shown
# light: DIQMTQSPSSLSASVGDRVTITCRASQDVSTAVAWYQQKPGKAPKLLIYSASFLYSGVPSRFSGSGSGTDFTLTISSLQPEDFATTYYCQQSYTGTVTFGQGTKVEIKRTVAAPSVFIFPPDIQMTQSPSSLSASVGDRVTITCRASQVIRRSLAWYQQKPGKAPKLLIYAASNLASGVPSRFSGSGSGTDFTLTISSLQPEDFATYYCQQSNTSPLTFGQGTKVEIKRTVAAPSVFIFPPSDEQLKSGTASVVCLLNNFYPREAKVQWKVDNALQSGNSQESVTEQDSKDSTYSLSSTLTLSKADYEKHKVYACEVTHQGLSSPVTKSFNRGEC
# notes: DVD-Ig; outer AB015 (DLL4), inner AB071 (VEGF); also called DLL4 and VEGF DVD-Ig, HC linker short, LC linker long
# B6: DVD471 (bispecific antibody, human IgG1, kappa, L234A L235A)
# heavy: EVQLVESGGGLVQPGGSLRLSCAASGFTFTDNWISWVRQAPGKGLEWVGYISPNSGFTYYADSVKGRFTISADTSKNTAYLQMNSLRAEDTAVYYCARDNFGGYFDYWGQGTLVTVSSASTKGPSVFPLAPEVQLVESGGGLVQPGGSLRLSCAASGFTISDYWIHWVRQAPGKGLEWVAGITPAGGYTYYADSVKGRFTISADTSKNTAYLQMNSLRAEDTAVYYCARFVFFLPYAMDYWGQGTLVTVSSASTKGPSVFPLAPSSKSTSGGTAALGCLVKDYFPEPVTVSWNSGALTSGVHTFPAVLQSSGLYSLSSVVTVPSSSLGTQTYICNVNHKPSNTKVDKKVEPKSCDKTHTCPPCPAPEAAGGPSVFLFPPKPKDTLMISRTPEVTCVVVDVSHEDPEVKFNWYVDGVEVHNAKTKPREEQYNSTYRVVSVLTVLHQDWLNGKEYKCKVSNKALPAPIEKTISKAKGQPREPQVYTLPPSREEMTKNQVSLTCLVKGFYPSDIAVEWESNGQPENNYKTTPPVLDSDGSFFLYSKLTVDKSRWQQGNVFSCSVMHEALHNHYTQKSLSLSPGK
# light: DIQMTQSPSSLSASVGDRVTITCRASQDVSTAVAWYQQKPGKAPKLLIYSASFLYSGVPSRFSGSGSGTDFTLTISSLQPEDFATTYYCQQSYTGTVTFGQGTKVEIKRTVAAPSVFIFPPDIQMTQSPSSLSASVGDRVTITCRASQDVSTAVAWYQQKPGKAPKLLIYSASFLYSGVPSRFSGSGSGTDFTLTISSLQPEDFATYYCQQSYTTPPTFGQGTKVEIKRTVAAPSVFIFPPSDEQLKSGTASVVCLLNNFYPREAKVQWKVDNALQSGNSQESVTEQDSKDSTYSLSSTLTLSKADYEKHKVYACEVTHQGLSSPVTKSFNRGEC
# notes: DVD-Ig; also called DLL4 and VEGF DVD-Ig, HC linker long, LC linker long
# B7: DVD498 (bispecific antibody, human IgG1, kappa)
# heavy: not shown
# light: DIQMTQSPSSLSASVGDRVTITCRASQVIRRSLAWYQQKPGKAPKLLIYAASNLASGVPSRFSGSGSGTDFTLTISSLQPEDFATYYCQQSNTSPLTFGQGTKVEIKRTVAAPSVFIFPPDIQMTQSSSYLSVSLGGRVTITCKASDHINNWLAWYQQKPGNAPRLLISGATSLETGVPSRFSGSGSGKDYTLSITSLQTEDVATYYCQQYWSIPLTFGAGTKLELKRTVAAPSVFIFPPSDEQLKSGTASVVCLLNNFYPREAKVQWKVDNALQSGNSQESVTEQDSKDSTYSLSSTLTLSKADYEKHKVYACEVTHQGLSSPVTKSFNRGEC
# notes: DVD-Ig; N-term; AB071 (VEGF), C-term; AB072 (DLL4); HC linker long, LC linker long; also called DVD-Ig DVD498; DVD498H/DVD498L
# B8: DVD496 (bispecific antibody, human IgG1, kappa)
# heavy: not shown
# light: DIQMTQSPSSLSASVGDRVTITCRASQDVSTAVAWYQQKPGKAPKLLIYSASFLYSGVPSRFSGSGSGTDFTLTISSLQPEDFATYYCQQSYTTPPTFGQGTKVEIKRTVAAPSVFIFPPDIQMTQSSSYLSVSLGGRVTITCKASDHINNWLAWYQQKPGNAPRLLISGATSLETGVPSRFSGSGSGKDYTLSITSLQTEDVATYYCQQYWSIPLTFGAGTKLELKRTVAAPSVFIFPPSDEQLKSGTASVVCLLNNFYPREAKVQWKVDNALQSGNSQESVTEQDSKDSTYSLSSTLTLSKADYEKHKVYACEVTHQGLSSPVTKSFNRGEC
# notes: DVD-Ig; N-term; AB070 (VEGF), C-term; AB072 (DLL4); HC linker long, LC linker long; also called DVD-Ig DVD496; DVD496H/DVD496L
# Tests used:
# RON = molecular target: T1, RON (UniProt Q04912 25-1400, limits assumed); test: flow cytometry on cells carrying the target, 2 ug/mL; C-terminal VD
# T1 construct: whole, on cells; also called macrophage stimulating protein receptor tyrosine kinase; MSP receptor
# DLL4 [1] = molecular target: T2, DLL4 (human, UniProt Q9NR61 27-685); test: as above
# T2 construct: whole, on cells; also called human DLL4
# DLL4 [2] = molecular target: T2, DLL4; test: flow cytometry on 293G-human DLL4 cells; DLL4 VD N-terminal
# [3] = molecular target: T3, VEGF (VEGF 1-165 aa, R&D Systems 293-VE-010) (UniProt P15692 27-191); test: Direct bind ELISA, VEGF coated on plate; VEGF domain N-term., HC long/LC long
# T3 construct: bought reagent; also called vascular endothelial growth factor
# T3 sequence (P15692 other isoform, or with tags, fused parts or gaps limits assumed): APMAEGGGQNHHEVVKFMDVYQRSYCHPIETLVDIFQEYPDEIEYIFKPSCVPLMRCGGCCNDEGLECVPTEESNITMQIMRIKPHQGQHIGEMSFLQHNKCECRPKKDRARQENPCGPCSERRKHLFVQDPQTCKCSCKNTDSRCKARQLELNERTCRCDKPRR
binder,measurement,setting,value
B1,FACS Geometric Mean C-terminal,RON,0.39
B2,FACS Geometric Mean C-terminal,DLL4 [1],68.4
B3,FACS Geometric Mean C-terminal,RON,0.51
B4,FACS Geometric Mean C-terminal,DLL4 [1],5.57
B5,EC50,DLL4 [2],0.89 nM
B6,EC50,DLL4 [2],1.13 nM
B7,EC50,[3],30.6 nM
B8,EC50,[3],108 nM
